Measured values from paper PMC5362816.

How the values were obtained:
[1] = biological target: HA-tagged CaM12 mutant (rat) (UniProt P0DP29); assay: co-IP; HA-CaM or mutants co-expressed with TRPA1-V5 in HEK293; IP with anti-HA.11 and Protein A/G PLUS-Agarose in 2 mM Ca2+; blot with anti-V5; band intensity by ImageJ, normalized by total TRPA1
[2] = biological target: HA-tagged CaM3 mutant (rat) (UniProt P0DP29); assay: as above
[3] = biological target: HA-tagged CaM4 mutant (rat) (UniProt P0DP29); assay: as above
CaM-agarose (Sigma) = CaM-agarose (Sigma) (UniProt P62157); assay: pull-down; CaM-agarose (Sigma) incubated with HEK293 lysate expressing a V5-His-tagged TRP channel; 20 mM Tris-HCl pH 7.4, 150 mM NaCl, 1% NP-40, 4 °C; 1 mM Ca2+ (Fig. 2A) or 2 mM Ca2+ (Fig. 2B); blot with anti-V5

TRPA1-V5-His (×6), sequence (Q8BLA8 whole entry): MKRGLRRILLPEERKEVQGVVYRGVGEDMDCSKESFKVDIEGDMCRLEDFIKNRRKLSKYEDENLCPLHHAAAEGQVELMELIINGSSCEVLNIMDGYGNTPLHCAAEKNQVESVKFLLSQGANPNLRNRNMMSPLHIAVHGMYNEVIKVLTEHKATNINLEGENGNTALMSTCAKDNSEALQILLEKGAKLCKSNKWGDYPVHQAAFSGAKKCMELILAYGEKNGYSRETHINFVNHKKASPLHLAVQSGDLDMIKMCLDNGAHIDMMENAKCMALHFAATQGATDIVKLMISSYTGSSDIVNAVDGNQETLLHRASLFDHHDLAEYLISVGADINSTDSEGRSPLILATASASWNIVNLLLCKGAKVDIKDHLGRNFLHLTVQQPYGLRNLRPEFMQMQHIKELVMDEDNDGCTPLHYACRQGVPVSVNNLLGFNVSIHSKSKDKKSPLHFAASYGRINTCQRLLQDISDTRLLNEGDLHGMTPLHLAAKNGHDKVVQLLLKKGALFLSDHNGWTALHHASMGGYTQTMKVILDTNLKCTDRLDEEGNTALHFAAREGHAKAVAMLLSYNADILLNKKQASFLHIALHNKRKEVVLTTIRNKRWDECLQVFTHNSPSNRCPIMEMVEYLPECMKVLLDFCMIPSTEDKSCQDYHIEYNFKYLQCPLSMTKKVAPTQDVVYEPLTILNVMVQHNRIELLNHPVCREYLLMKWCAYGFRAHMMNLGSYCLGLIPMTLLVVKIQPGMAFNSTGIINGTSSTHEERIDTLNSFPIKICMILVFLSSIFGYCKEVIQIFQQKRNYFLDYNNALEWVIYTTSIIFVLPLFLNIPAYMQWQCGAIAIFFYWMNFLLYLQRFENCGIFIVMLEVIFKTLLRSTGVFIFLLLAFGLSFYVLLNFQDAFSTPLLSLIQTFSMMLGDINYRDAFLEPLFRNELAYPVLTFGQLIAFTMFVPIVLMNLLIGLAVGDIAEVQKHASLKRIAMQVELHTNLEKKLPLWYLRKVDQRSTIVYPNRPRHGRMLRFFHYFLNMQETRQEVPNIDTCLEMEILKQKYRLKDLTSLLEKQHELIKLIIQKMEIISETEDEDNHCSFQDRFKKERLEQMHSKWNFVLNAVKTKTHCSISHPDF

percent reduction in TRPA1-CaM binding against wild-type CaM [1] | percent reduction in TRPA1-CaM binding against wild-type CaM [2] | percent reduction in TRPA1-CaM binding against wild-type CaM [3] | relative binding to CaM (normalized by total input) (CaM-agarose (Sigma)) | Substance
40% | 60% | 87% |  | TRPA1-V5-His (×6) (from UniProt Q8BLA8 1-1125) (natural protein)
 |  |  | 0.2 | TRPV3 (V5-His tagged) (natural protein)
